Test results taken from the supplement of paper PMC10567573.

B1: FAM189A2 (parent)
chain: GSEAAVIPLDLGCTQVTQDGDIPN

Variants of: B1
Assay: protein stability index of a GFP-peptide fusion (GPS, HEK-293T) (PSI 1-6); higher = more stable
Details: c terminus: a fixed tail appended
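Note: lentivirally expressed fusions sorted by FACS into six bins by GFP to DsRed ratio, PSI derived from sequencing read proportions per bin multiplied by bin number.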

Variant | protein stability index
GSEAAVIPIDLGCTQVTQDGDIPN [L9I] | 5.15
GSEAAVIPEDLGCTQVTQDGDIPN [L9E] | 5.41
GSEAAVIPSDLGCTQVTQDGDIPN [L9S] | 5.7
GSEACVIPLDLGCTQVTQDGDIPN [A5C] | 4.9
GSEAQVIPLDLGCTQVTQDGDIPN [A5Q] | 5.1
GSEAVVIPLDLGCTQVTQDGDIPN [A5V] | 5.08
GSELAVIPLDLGCTQVTQDGDIPN [A4L] | 5.34
GSEMAVIPLDLGCTQVTQDGDIPN [A4M] | 4.81
GSEWAVIPLDLGCTQVTQDGDIPN [A4W] | 4.53
GSERAVIPLDLGCTQVTQDGDIPN [A4R] | 5.4
GSEGAVIPLDLGCTQVTQDGDIPN [A4G] | 5.29
GSEAAPIPLDLGCTQVTQDGDIPN [V6P] | 5.76
GSEAASIPLDLGCTQVTQDGDIPN [V6S] | 5.58
GSEAADIPLDLGCTQVTQDGDIPN [V6D] | 5.63
GSEAANIPLDLGCTQVTQDGDIPN [V6N] | 5.44
GSEAAYIPLDLGCTQVTQDGDIPN [V6Y] | 5.35
GSEAAVIPLDLGCTQVTQDGDIFN [P23F] | 4.35
GSEAAVIPLDLGCTQVTQDGDIEN [P23E] | 5.55
GSEAAVIPLDLGCTQVTQDGDIAN [P23A] | 5.3
GSEAAVIPLDLGCTQVTQDGDIRN [P23R] | 4.89
GSEAAVIPLDLGCTQVTQDGDICN [P23C] | 4.93
GSEAAVIPLDLGCTQVTQDGDITN [P23T] | 5.5
GSEAAVIPLDLGCTQVTQDGIIPN [D21I] | 4.45
GSEAAVIPLDLGCTQVTQDGCIPN [D21C] | 4.71

Variant | protein stability index
GSTAAVIPLDLGCTQVTQDGDIPN [E3T] | 5.11
GSIAAVIPLDLGCTQVTQDGDIPN [E3I] | 3.58
GSQAAVIPLDLGCTQVTQDGDIPN [E3Q] | 5.3
GSCAAVIPLDLGCTQVTQDGDIPN [E3C] | 4.83
GSEAAVIPLDLGCTQVTQDGDLPN [I22L] | 5.39
GSEAAVIPLDLGCTQVTQFGDIPN [D19F] | 4.46
GSEAAVIPLDLGCTQVTQSGDIPN [D19S] | 4.62
GSEAAVIPLDLGCTQVTQWGDIPN [D19W] | 4.37
GSEAAVIPLDLGCTQVTQGGDIPN [D19G] | 5.24
GSEAAVIPLDAGCTQVTQDGDIPN [L11A] | 5.54
GSEAAVIPLDMGCTQVTQDGDIPN [L11M] | 5.31
GSEAAVIPLDLGCRQVTQDGDIPN [T14R] | 4.41
GSEAAVIPLDLGCVQVTQDGDIPN [T14V] | 5.31
GSEAAVQPLDLGCTQVTQDGDIPN [I7Q] | 5.24
GSEAAVAPLDLGCTQVTQDGDIPN [I7A] | 5.57
GSEAAVPPLDLGCTQVTQDGDIPN [I7P] | 5.47
GSEAAVDPLDLGCTQVTQDGDIPN [I7D] | 5.93
GSEAAVVPLDLGCTQVTQDGDIPN [I7V] | 5.23
GWEAAVIPLDLGCTQVTQDGDIPN [S2W] | 3.93
GYEAAVIPLDLGCTQVTQDGDIPN [S2Y] | 4.8
GVEAAVIPLDLGCTQVTQDGDIPN [S2V] | 4.85
GSEAAVIPLDLGPTQVTQDGDIPN [C13P] | 5.67
GSEAAVIPLDLGHTQVTQDGDIPN [C13H] | 5.63
GSEAAVIPLDLGRTQVTQDGDIPN [C13R] | 5.33

Variant | protein stability index
GSEAAVIPLDLGWTQVTQDGDIPN [C13W] | 4.36
GSEAAVIPLDLGCTQVEQDGDIPN [T17E] | 5.68
GSEAAVIPLDLGCTQVCQDGDIPN [T17C] | 5.19
GSEAAVIPLDLGCTQVSQDGDIPN [T17S] | 5.5
GSEAAVIPLDLGCTQVKQDGDIPN [T17K] | 5.4
GSEAAVIPLDLGCTQVMQDGDIPN [T17M] | 5.14
GSEAAVIPLDLGCTQVDQDGDIPN [T17D] | 5.46
GSEAAVIPLDLGCTQVGQDGDIPN [T17G] | 5
GSEAAVIPLDLGCTQVVQDGDIPN [T17V] | 5.37
GSEAAVIPLDLMCTQVTQDGDIPN [G12M] | 4.82
GSEAAVIPLDLPCTQVTQDGDIPN [G12P] | 5.52
GSEAAVIPLDLDCTQVTQDGDIPN [G12D] | 5.61
GSEAAVIPLDLGCTQVTQDGDIPY [N24Y] | 4.91
GSEAAVIPLDLGCTQVTQDGDIPW [N24W] | 4.39
GSEAAVIPLDLGCTQVTQDGDIPP [N24P] | 5.14
GSEAAVIPLDLGCTQVTQDGDIPT [N24T] | 5.54
GSEAAVIPLDLGCTQVTQDGDIPK [N24K] | 5.03
GSEAAVITLDLGCTQVTQDGDIPN [P8T] | 4.42
GSEAAVIILDLGCTQVTQDGDIPN [P8I] | 1.87
GSEAAVIVLDLGCTQVTQDGDIPN [P8V] | 2.54
GSEAAVIALDLGCTQVTQDGDIPN [P8A] | 4.68
GSEAAVIDLDLGCTQVTQDGDIPN [P8D] | 4.97
GSEAAVIKLDLGCTQVTQDGDIPN [P8K] | 5
GSEAAVINLDLGCTQVTQDGDIPN [P8N] | 5.16

Variant | protein stability index
GSEAAVIPLDLGCTQVTQDTDIPN [G20T] | 5.41
GSEAAVIPLDLGCTQVTQDPDIPN [G20P] | 4.97
GSEAAVIPLDLGCTQVTQDSDIPN [G20S] | 5.32
GSEAAVIPLDLGCTQVTQDLDIPN [G20L] | 5.04
GSEAAVIPLDLGCTQVTQDVDIPN [G20V] | 4.97
GSEAAVIPLDLGCTQVTQDQDIPN [G20Q] | 4.75
GSEAAVIPLDLGCTVVTQDGDIPN [Q15V] | 5.12
GSEAAVIPLDLGCTSVTQDGDIPN [Q15S] | 5.4
GSEAAVIPLDLGCTKVTQDGDIPN [Q15K] | 5.16
GSEAAVIPLDLGCTHVTQDGDIPN [Q15H] | 5.51
GSEAAVIPLVLGCTQVTQDGDIPN [D10V] | 4.48
GSEAAVIPLELGCTQVTQDGDIPN [D10E] | 5.18
GSEAAVIPLSLGCTQVTQDGDIPN [D10S] | 5.15
GSEAAVIPLCLGCTQVTQDGDIPN [D10C] | 4.38
GSEAAVIPLTLGCTQVTQDGDIPN [D10T] | 5.34
GSEAAVIPLALGCTQVTQDGDIPN [D10A] | 5.39
NSEAAVIPLDLGCTQVTQDGDIPN [G1N] | 5.46
ESEAAVIPLDLGCTQVTQDGDIPN [G1E] | 5.05
GSEAAVIPLDLGCTQITQDGDIPN [V16I] | 5.26
GSEAAVIPLDLGCTQGTQDGDIPN [V16G] | 5.14
GSEAAVIPLDLGCTQCTQDGDIPN [V16C] | 5.31
GSEAAVIPLDLGCTQMTQDGDIPN [V16M] | 4.6
